# Target: CD44 existing on the cell surface of CTLs (human) (UniProt P16070)
# Experiment: cell-based or functional assay
# UniProt P16070, sequence (P16070 21-742): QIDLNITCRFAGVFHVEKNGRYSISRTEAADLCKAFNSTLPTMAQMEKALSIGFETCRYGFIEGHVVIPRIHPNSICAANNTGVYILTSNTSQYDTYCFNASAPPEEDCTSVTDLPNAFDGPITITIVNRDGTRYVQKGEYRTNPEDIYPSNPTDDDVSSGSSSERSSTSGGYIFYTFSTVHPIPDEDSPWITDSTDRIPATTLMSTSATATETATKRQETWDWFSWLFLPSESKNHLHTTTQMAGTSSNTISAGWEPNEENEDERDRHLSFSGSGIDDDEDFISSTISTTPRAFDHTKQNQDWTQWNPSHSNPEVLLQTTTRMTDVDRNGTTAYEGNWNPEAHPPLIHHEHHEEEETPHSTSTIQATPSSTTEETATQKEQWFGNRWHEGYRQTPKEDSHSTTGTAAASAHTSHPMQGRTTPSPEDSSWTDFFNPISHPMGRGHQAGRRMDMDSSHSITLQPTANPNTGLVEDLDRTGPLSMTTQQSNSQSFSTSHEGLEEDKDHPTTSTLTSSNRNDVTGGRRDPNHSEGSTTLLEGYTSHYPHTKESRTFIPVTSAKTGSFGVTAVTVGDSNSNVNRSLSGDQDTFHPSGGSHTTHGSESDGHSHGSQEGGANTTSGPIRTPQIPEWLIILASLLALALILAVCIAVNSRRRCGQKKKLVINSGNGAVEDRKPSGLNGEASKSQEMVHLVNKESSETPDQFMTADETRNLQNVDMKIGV
substance,measurement,value
"anti-CD44 antibody (hyaluronic acid-bound Non-blocking antibody; HA Non-blocking Anti-CD44 Antibody), monoclonal, manufactured by Ancell","Cytotoxic Activity (%), E/T Ratio 3, peptide pulse +, after expansion with antibody",32.4%
same,"Cytotoxic Activity (%), E/T Ratio 3, peptide pulse -, after expansion with antibody",10.3%
same,"Cytotoxic Activity (%), E/T Ratio 10, peptide pulse +, after expansion with antibody",60.1%
same,"Cytotoxic Activity (%), E/T Ratio 10, peptide pulse -, after expansion with antibody",14.2%
same,"Cytotoxic Activity (%), E/T Ratio 30, peptide pulse +, after expansion with antibody",105%
same,"Cytotoxic Activity (%), E/T Ratio 30, peptide pulse -, after expansion with antibody",21.2%

# Reference: patent US20050042208A1
